Key:
BAK = BAK (UniProt Q16611); test: FLAG co-immunoprecipitation, immunoblot; conditions: reference: WT-FLAG-MCL-1; sites T163
Noxa = Noxa (UniProt Q13794); test: FLAG co-immunoprecipitation, immunoblot; conditions: reference: WT-FLAG-MCL-1; sites T163
[1] = target: Mule (preparation of Supplemental Figure 3D, not told) (UniProt Q7Z6Z7)

binding against the reference (BAK)	binding against the reference (Noxa)	stoichiometry N [1]	Substance
lost	lost	–	Mcl-1 (from UniProt Q07820) T163A-FLAG-MCL-1
–	–	2	Mule (preparation of Supplemental Figure 3D, not told) (from UniProt Q7Z6Z7 1-4374) (natural protein)

Source: article PMC9852224
